B1: Example 779 (peptide)
chain: YXQGTFTSDFSQXLDKKAQXAFIEYLLEAGPSSXAPPPSGT
modifications: synthetic construct; SITE 2: note = 2-Aminoisobutyric Acid; SITE 13: note = alpha-methyl-leucine; SITE 17: note = Lysine is chemically modified through conjugation of the epsilon-amino group of the Lysine side chain with (2-[2-(2-Amino-ethoxy)-ethoxy]-acetyl)-(gamma-Glu)-CO-(CH2) 16-CO2H; SITE 20: n
B2: Example 780 (peptide)
chain: YXQGTFTSDFSQXLDKKAQXAFIEYLLEAGPSSXAPPPSGT
modifications: no C-terminal amide; synthetic construct; SITE 2: note = 2-Aminoisobutyric Acid; SITE 13: note = alpha-methyl-leucine; SITE 17: note = Lysine is chemically modified through conjugation of the epsilon-amino group of the Lysine side chain with (2-[2-(2-Amino-ethoxy)-ethoxy]-acetyl)-(gamma-Glu)-CO-(CH2) 16-CO2H; SITE 20: n
B3: Example 782 (peptide)
chain: YXQGTFTSDFSQXLDKKAQXAFIEYLLEXGPSSGAPPPSGX
modifications: synthetic construct; SITE 2: note = 2-Aminoisobutyric Acid; SITE 13: note = alpha-methyl-leucine; SITE 17: note = Lysine is chemically modified through conjugation of the epsilon-amino group of the Lysine side chain with (2-[2-(2-Amino-ethoxy)-ethoxy]-acetyl)-(gamma-Glu)-CO-(CH2) 16-CO2H; SITE 20: n
B4: Example 784 (peptide)
chain: YXQGTFTSDFSQXLDKKAQXAFIEYLLEXGPSSGAPPPSGS
modifications: synthetic construct; SITE 2: note = 2-Aminoisobutyric Acid; SITE 13: note = alpha-methyl-leucine; SITE 17: note = Lysine is chemically modified through conjugation of the epsilon-amino group of the Lysine side chain with (gamma-Glu)2-CO-(CH2)16-CO2H; SITE 20: note = 2-Aminoisobutyric Acid; SITE 29:
B5: Example 787 (peptide)
chain: YXQGTFTSDFSQXLDKKAQXAFIEYLLEXGESSGAPPPSGS
modifications: synthetic construct; SITE 2: note = 2-Aminoisobutyric Acid; SITE 13: note = alpha-methyl-leucine; SITE 17: note = Lysine is chemically modified through conjugation of the epsilon-amino group of the Lysine side chain with (2-[2-(2-Amino-ethoxy)-ethoxy]-acetyl)2-(gamma-Glu)-CO-(CH2 )16-CO2H; SITE 20:
B6: Example 788 (peptide)
chain: YXQGTFTSDFSQXLDKKAQXAFIEYLLEXGESSGEPPPSGS
modifications: synthetic construct; SITE 2: note = 2-Aminoisobutyric Acid; SITE 13: note = alpha-methyl-leucine; SITE 17: note = Lysine is chemically modified through conjugation of the epsilon-amino group of the Lysine side chain with (2-[2-(2-Amino-ethoxy)-ethoxy]-acetyl)-(gamma-Glu)-CO-(CH2) 16-CO2H; SITE 20: n
B7: Example 789 (peptide)
chain: YXQGTFTSDFSQXLDKKAQXAFIEYLLEXGESSGAPPPSGE
modifications: synthetic construct; SITE 2: note = 2-Aminoisobutyric Acid; SITE 13: note = alpha-methyl-leucine; SITE 17: note = Lysine is chemically modified through conjugation of the epsilon-amino group of the Lysine side chain with (2-[2-(2-Amino-ethoxy)-ethoxy]-acetyl)-(gamma-Glu)-CO-(CH2) 16-CO2H; SITE 20: n
B8: Example 790 (peptide)
chain: YXQGTFTSDFSQXLDKKAQXAFIEYLLEXGESSGEPPPSGE
modifications: synthetic construct; SITE 2: note = 2-Aminoisobutyric Acid; SITE 13: note = alpha-methyl-leucine; SITE 17: note = Lysine is chemically modified through conjugation of the epsilon-amino group of the Lysine side chain with (2-[2-(2-Amino-ethoxy)-ethoxy]-acetyl)-(gamma-Glu)-CO-(CH2) 16-CO2H; SITE 20: n
B9: Example 794 (peptide)
chain: YXQGTFTSDFSRXLDKKAQXAFIEYLIEGGESSGAPPPSGS
modifications: synthetic construct; SITE 2: note = 2-Aminoisobutyric Acid; SITE 13: note = alpha-methyl-leucine; SITE 17: note = Lysine is chemically modified through conjugation of the epsilon-amino group of the Lysine side chain with (2-[2-(2-Amino-ethoxy)-ethoxy]-acetyl)-(gamma-Glu)-CO-(CH2) 16-CO2H; SITE 20: n
B10: Example 795 (peptide)
chain: YXQGTFTSDFSQXLDKKAQXAFIEYLIEGGESSGAPPPSGS
modifications: synthetic construct; SITE 2: note = 2-Aminoisobutyric Acid; SITE 13: note = alpha-methyl-leucine; SITE 17: note = Lysine is chemically modified through conjugation of the epsilon-amino group of the Lysine side chain with (2-[2-(2-Amino-ethoxy)-ethoxy]-acetyl)-(gamma-Glu)-CO-(CH2) 16-CO2H; SITE 20: n
B11: Example 796 (peptide)
chain: YXQGTFTSDFSXXLDKKAQXAFIEYLIEXGPSSGAPPPSGS
modifications: synthetic construct; SITE 2: note = 2-Aminoisobutyric Acid; SITE 12: note = L-ornithine; SITE 13: note = alpha-methyl-leucine; SITE 17: note = Lysine is chemically modified through conjugation of the epsilon-amino group of the Lysine side chain with (2-[2-(2-Amino-ethoxy)-ethoxy]-acetyl)-(gamma-Glu)
B12: Example 797 (peptide)
chain: YXQGTFTSDFSKXLDKKAQXAFIEYLIEXGPSSGAPPPSGS
modifications: synthetic construct; SITE 2: note = 2-Aminoisobutyric Acid; SITE 13: note = alpha-methyl-leucine; SITE 17: note = Lysine is chemically modified through conjugation of the epsilon-amino group of the Lysine side chain with (2-[2-(2-Amino-ethoxy)-ethoxy]-acetyl)-(gamma-Glu)-CO-(CH2) 16-CO2H; SITE 20: n
B13: Example 799 (peptide)
chain: YXQGTFTSDFSXXLDKKAQXAFIEYLIEXGPSSGAPPPSGS
modifications: synthetic construct; SITE 2: note = 2-Aminoisobutyric Acid; SITE 12: note = (S)-2,4-diaminobutanoic acid; SITE 13: note = alpha-methyl-leucine; SITE 17: note = Lysine is chemically modified through conjugation of the epsilon-amino group of the Lysine side chain with (2-[2-(2-Amino-ethoxy)-ethoxy]-ac)
B14: Example 76 (peptide)
chain: YXQGTFTSDFSXXLDKKAQXAFIEYLLAGGPSSGAPPPSGS
modifications: synthetic construct; SITE 2: note = 2-Aminoisobutyric Acid; SITE 12: note = L-ornithine; SITE 13: note = alpha-methyl-leucine; SITE 17: note = Lysine is chemically modified through conjugation of the epsilon-amino group of the Lysine side chain with (2-[2-(2-Amino-ethoxy)-ethoxy]-acetyl)-(gamma-Glu)

Columns and labels:
Assay in all cases: cell-based or functional assay
[1] = target: T1, human GIP receptor (human) (UniProt P48546)
T1 sequence (looked up): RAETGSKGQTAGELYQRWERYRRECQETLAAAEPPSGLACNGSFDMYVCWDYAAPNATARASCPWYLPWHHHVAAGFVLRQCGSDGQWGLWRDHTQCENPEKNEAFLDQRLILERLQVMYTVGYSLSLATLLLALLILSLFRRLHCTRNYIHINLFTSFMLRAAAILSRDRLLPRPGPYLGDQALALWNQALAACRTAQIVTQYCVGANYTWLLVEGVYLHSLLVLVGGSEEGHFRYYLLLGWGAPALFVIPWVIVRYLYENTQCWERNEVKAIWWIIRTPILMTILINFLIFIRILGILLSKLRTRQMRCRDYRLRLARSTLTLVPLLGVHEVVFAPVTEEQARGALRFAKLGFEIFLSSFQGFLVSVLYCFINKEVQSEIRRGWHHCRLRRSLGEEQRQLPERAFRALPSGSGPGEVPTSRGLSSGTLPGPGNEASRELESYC

hGLP-1R = hGLP-1R (Homo sapiens, UniProt P43220)
Chain of hGLP-1R (P43220 24-463): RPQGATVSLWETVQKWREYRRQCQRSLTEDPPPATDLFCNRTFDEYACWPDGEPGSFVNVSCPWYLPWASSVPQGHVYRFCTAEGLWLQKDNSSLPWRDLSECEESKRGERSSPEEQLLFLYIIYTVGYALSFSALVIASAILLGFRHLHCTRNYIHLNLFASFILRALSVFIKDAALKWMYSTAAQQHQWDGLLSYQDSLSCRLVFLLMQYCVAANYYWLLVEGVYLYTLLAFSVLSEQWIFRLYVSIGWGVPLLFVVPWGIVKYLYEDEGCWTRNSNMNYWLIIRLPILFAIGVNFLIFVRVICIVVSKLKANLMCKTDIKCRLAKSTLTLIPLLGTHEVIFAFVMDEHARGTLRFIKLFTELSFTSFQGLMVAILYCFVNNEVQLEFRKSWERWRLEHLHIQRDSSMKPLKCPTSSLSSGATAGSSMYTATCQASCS

[2] = target: human glucagon receptor (human) (UniProt P47871)
Chain of human glucagon receptor (human) (P47871 26-477): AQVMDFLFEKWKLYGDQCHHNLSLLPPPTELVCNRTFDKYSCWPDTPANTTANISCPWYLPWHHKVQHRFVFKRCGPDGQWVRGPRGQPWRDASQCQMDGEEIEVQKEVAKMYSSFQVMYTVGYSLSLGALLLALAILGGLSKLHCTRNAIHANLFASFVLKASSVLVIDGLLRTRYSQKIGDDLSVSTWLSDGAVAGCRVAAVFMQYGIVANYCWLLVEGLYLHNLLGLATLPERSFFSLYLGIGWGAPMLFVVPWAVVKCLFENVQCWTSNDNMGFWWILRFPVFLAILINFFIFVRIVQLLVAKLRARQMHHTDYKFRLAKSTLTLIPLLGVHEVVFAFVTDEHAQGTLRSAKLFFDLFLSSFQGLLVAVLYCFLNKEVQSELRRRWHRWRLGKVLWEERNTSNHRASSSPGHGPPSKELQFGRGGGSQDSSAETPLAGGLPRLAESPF

Row | Binder | Relative cAMP EC50 [1] [nM] | cAMP Rel EC50, nM (1% HSA) [1] [nM] | Relative cAMP EC50 (hGLP-1R) [nM] | cAMP Rel EC50, nM (1% HSA) (hGLP-1R) [nM] | Relative cAMP EC50 [2] [nM] | cAMP Rel EC50, nM (1% HSA) [2] [nM] | cAMP Rel EC50 (1% HSA) [1] [nM] | cAMP Rel EC50 (1% HSA) (hGLP-1R) [nM] | cAMP Rel EC50 (1% HSA) [2] [nM] | cAMP Rel EC50, nM (in the presence of 1% HSA) [1] [nM] | cAMP Rel EC50, nM (in the presence of 1% HSA) (hGLP-1R) [nM] | cAMP Rel EC50, nM (in the presence of 1% HSA) [2] [nM]
1 | B1 | 0.112 | 19.3 | 0.949 | 175 | 4.58 | 1020 | – | – | – | – | – | –
2 | B2 | 0.111 | 22.1 | 1.26 | 211 | 4.84 | 1250 | – | – | – | – | – | –
3 | B3 | 0.0711 | 15.5 | 1.94 | 354 | 4.96 | 1380 | – | – | – | – | – | –
4 | B4 | 0.0587 | 11.8 | 2.09 | 284 | 5.21 | 711 | – | – | – | – | – | –
5 | B5 | 0.0675 | 18.6 | 2.55 | 382 | 7.81 | 2060 | – | – | – | – | – | –
6 | B6 | 0.0923 | 20.7 | 2.5 | 528 | 3.36 | 1420 | – | – | – | – | – | –
7 | B7 | 0.101 | 20.4 | 2.74 | 379 | 3.3 | 1200 | – | – | – | – | – | –
8 | B8 | 0.131 | 34.1 | 3.19 | 858 | 3.87 | 1200 | – | – | – | – | – | –
9 | B9 | 0.468 | 68.4 | 1.26 | 233 | 1.21 | 297 | – | – | – | – | – | –
10 | B10 | 0.345 | 67.3 | 0.972 | 221 | 1.77 | 566 | – | – | – | – | – | –
11 | B11 | 0.098 | 17.5 | 0.602 | 125 | 5.3 | 1000 | – | – | – | – | – | –
12 | B12 | 0.0781 | – | 0.449 | – | 3.78 | – | 16.7 | 102 | 963 | – | – | –
13 | B13 | 0.0668 | – | 0.462 | – | 1.64 | – | 18.4 | 179 | 574 | – | – | –
14 | B14 | 0.196 | – | 2.25 | – | 11.1 | – | – | – | – | 45.5 | 436 | 2240
